Assay: soluble on expression in E. coli; label from the status in PepcDB or PDB records

Sequence | soluble on expression in E. coli
GPLGSAGKSSLFKIILLGDGGVGKSSLMNRYVTNKFDSQLFHTIGVEFLNKDLEVDGHFVTMQIWDTAGQERFRSLRTPFYRGSDCCLLTFSVDDSQSFQNLSNWKKEFIYYADVKEPESFPFVILGNKTDIKERQVSTEEAQAWCKDNGDYPYFETSAKDSTNVAAAFEEAVRRILAT | soluble
MNTDEYYMRLAMEEAKKAEQIGEVPIGAVIVQDGRVIARAHNLRETEQRAIAHAEILAIDEACRATGSWRLERATLYVTLEPCAMCAGAIVLSRIERVVFGAFDPKGGCAGTLMNLLQESRFNHQVKVVSGVLADECGSLLSQFFRRLREQKRNVGGSANENSVD | not soluble
MSAKRCASYYNATIKQESDYPELEGDIHVDVTIIGGGFTGVATAVELSEKGYKVALLEANKIAWGATGRNGGQVTGSLSGDAAMTKQLRRHLGQDAEDYVWNLRWRGHDIIKNRVAKYGIDCDLKFGHIQTAYHPGHMQELQQMFDEANRRGMGEFMTLVPAQEMSAYLASPLYHGGLVNRRNMHLHSVNLCLGEARAAASLGAQIFEHSQVLDIQQAELATVVTPKGTVKANSVLIAGNAYHKLGRPKLRGMLFPASLGNCATAKLPEELAKQLNPQNLAVYDCRFVLDYYRLTADNRLMFGGGTNYSGRDPKNVAAELRPAIERTFPQLKGVDIEFAWAGMAGIVINRIPQLGKISPNIFYCQGYSGHGVATSHIMAEIMGQAIDGQMQEFDLFAAMRHIRIPLNEWFGNQALALGMLYYTLRENWRLEHHHHHH | not soluble
MDVRPYEGGRFEKIGSEEAHTIETFERRIHGTPHSEPQRQVSSKQYTERRTYGRDENGEIVVKIEKNPSEPVRPASPVRPVTPVGGENELSRHLLQPIQPLHIPRIDIQPANSSRHASPRHKLQYDEVSPRSGSINMLSPRSGHSASSRSGAGSRQSNVSVNSANVPLKKVTKKSRFVSIHDGRPVSPYTETVSFEVAIPFQPDRYSSASARSFSSSPHVSRRPSECAYLMENPLYQD | not soluble
MAHHHHHHMSWRTRVVRCPLQEPHNPFDMGRVMQRFWSPFCKGVKGPDLHTYGFGETFSGMRTHDSDFTCQVNGQVGGAKLVEDFFITLLCGFDFEHVKVERHLTTSGAADPCQFQGTIVLAHTRPFLGWCPQPVTHSLEKCPSPSECDATKVSTNNINELGNTTATASRCLVQTGGNTEAPVPSLILNVPFTARLEGNVGRISHMILRSPAIGVIAAHQCCPAEVGSCLQNPEALQALVTLRRANVRPEMITDRTLVGITAKKAAWCSALGIL | not soluble
MTKRGLGKGLDALLATSSLAREKQQVASLSQSMSAEGELADLSISNLKPGIYQPRKDLSPEALEELAASIQSQGIIQPIVVRHLPTGGYEIIAGERRWRAAKQAGLKQVPCLIKQVEDRGAIAMALIENIQREDLNAMEEAQALERLQNEFNLTHQQVAEVIGKSRTTVTNLLRLNQLSDDVKRLLETKQLEMGHARALLMLEGEQQVEIAQQVAKKQLTVRQTEQLVKKCLSDPSDAKNVSEDLEIQQLSQNLSEKLAAKVSIVRTPNGKSKVTISLDEPHKLELLIAKLQN | not soluble
AHHHHHHGSKKITISSLLLLLLISTNLNLAYDSQESGIKNIIILIGDGMGMSHVQITKLVYGHLNMEEFPIIGFELTESLSGEVTDSAAAGTAIATGVKTYNRMISVTNITGKVTNLTTLLEIAQVLGKSTGLVTTTRITHATPAVFASHVPDRDMEEEIARQLIAHRVNVLLGGGRKKFDENTLKMAKEQGYNIVFTKEELEKAEGEFILGLFADSHIPYVLDRKPEDVGLLEMTKKAISILEKNPNGFFLMIEGGRIDHAAHENDIASVVAETKEFDDVVGYVLEYAKKRGDTLVIVLADHETGGLGLGLTYGDAINEDVIRNINASVSKIASEIRATNDIKRVIKKYTGFELTEDEINYIEEAINLADEYALQNAIADIINKRVGVGFVSHKHTGAPVSLLAYGPGAENFAGFLHHVDTAKLIAKLMLFGKKDIPVTILGISGVKGDITGDFKVDEQDAYVTLMMLLGERVDTELERKVDMNNNGIIELGDVLLILQES | soluble
MFRNVAELVALAEKDSIKIAEVMIRQEVEVSGRSREEVIAQMDHHLSVMERAVERGLEGVVSRSGLTGGDAVRMQRYIEGGRFLSGETILDAVSKAMATNEVNAAMGVICATPTAGAAGVVPGTLFAVKEKLRPTRMEMIEFLFTAGAFGYVVANNASISGAAGGCQAEVGSAAGMAAAALVELAGGTPGQAAEAMAIALKNMLGLVCDPVAGLVEVPCVKRNAMGAANAMIAADMALAGIKSRIPCDEVIEAMYRIGAAMPVALKETAQGGLAATPTGRAIAARIFGASAASK | not soluble
MSLKIWITKNHKSKDDWSRSKKFIIIKITTHDGVEGWGEAFSIHLREKAIATIIIELFKEISKIKNLSINSLYNKISLLSDNHKGLDFSAATSAIEIAAWDIAGKLKNLPLNCLLTDNPKPDVSIYVTCWSDLRKDEEDYLDQVEKYFEKKYGGIKIYPLFENTSNSIKFVDRVRKIVGMEYPLMLDLAIPKDLDQTKTFLKEVSFLKPYWIEEPVDGENISLLTEIKNSFDMKVVTGEKQSGLPHFKEIIKRDAADILNPDISGIGGIIDMLYVSKEALNNDISISPHCWNSMSVSASAMLHVCSSIPNSEKAEIFPDYIEFTKEFCELPFNIVEDKAILNQSAGLGIVIHEDTLSNLSTYRMDEKNEGHHHHHH | soluble
MSDTNYAVIYDLHSHTTASDGCLTPEALVHRAVEMRVGTLAITDHDTTAAIAPAREEISRSGLALNLIPGVEISTVWENHEIHIVGLNIDITHPLMCEFLAQQTERRNQRAQLIAERLEKAQIPGALEGAQRLAQGGAVTRGHFARFLVECGKASSMADVFKKYLARGKTGYVPPQWCTIEQAIDVIHHSGGKAVLAHPGRYNLSAKWLKRLVAHFAEHHGDAMEVAQCQQSPNERTQLAALARQHHLWASQGSDFHQPCPWIELGRKLWLPAGVEGVWQLWEQPQNTTERELLEHHHHHH | not soluble
MWITTTPWSKHSPNWVLADNGEKLIVPEIILGDAQGPTRNEWYIGLSSVLGFSFWSPDYDGVGTWLDAATQLNEQGGGDVITYSSGAHIVRTLLLAASQSNVHSTFTSKALGNDQTSSMTSSTTAVTVAKSGDGQQQTGEQKEEDWKDISKADLFKDDPYVLKNFGDSTTQAKMQSGGSTNSNGNGSQASLAFTKKALSLLKFLVDNKILKKDKVKEAIMNPDQYLSKRSKLDSNNQKPTKDDFIGSEFKDLYENAAKLNRFNSIWAEKDTDNAKFLITVVDSYFPVLPVPAAGLNETSPTLLKPWFQFRSAPSGNGTIRDYGFIPENK | soluble
MSGRKIAAATVQNRTQTPFWNWLKQKLLASDRLPITPPPGIAGPDGKAVYQNPLRFPNTQSARPCSAELPALPGGVHHKLADNYYLTRDGRRNVDAPKVLYSSGEFVGGEKAQPAQVNQGVATNFGLTAPTPGFGAEWSRSKQNELASQQKNTEFEYLQRFDKFTKSA | not soluble
GMQTLNDIYLAYLDSLNHQAFDELGTFVDDNVEHNGRPFGLSGYRDMLVKDFADIPDLRFEAEILVSDATRLAARLFFDCTPKSIFMDLPVNGRRVQFCEHVFYDFEQAKIRRVWSVLDKVAIERQLG | soluble
MGSDKIHHHHHHMREIEHAKYSRLKNAIYKDASVALLTQHGKEKVVTPILASAIGCEVTLVTGFDTDQLGTFTRDIPRAGTQIEAARKKARIGMELAHLPLGLASEGSFGPDPFTGLFSLNVEMVVWIDDTLGIEVVGVASGRTNFSHLLAANWEQAEAFARAIDFPEHGIVVRPRHEDDSRVRKGIADWESLREAFFWACGEADNGCVFLETDVRAHMNPMRMEIIASATRDLADKLATPCPVCNTPGFQIVERVPGLPCEGCGAPTRDTWADIHRCGRCGHQVALERLEKAAPAGHCDWCNP | not soluble
MHCLSDFIPWNQVSVTGDFVGHIQELIRTEVLPYQWEALNDQIAGAEPSHCLDNFRAAAEKKGHIQFHGQPFQDSDIYKWIEAAAYTLAWHPDSDLEAKADQAIELICGAQQPDGYLNTYFILTGAQRWTHLLDGHELYCAGHLMEAAVAYYHATGKDKLLKAAQKLADHIADVFGTSPGKIPGYPGHPEVELALIRLFEATGNIKYQQLAQYFICQRGASPSIFRKEADQFGWDWADSPFQFQFYQAGKPILEQTELEGHAVRALYLCCGIADVAARTQDAALLETCRRLWEDLTQTKLYITGGAGSSVYGEAFTFAYDLPNDTAYAETCAAVAVCFFAQRMMKISPSGAYGDVLEQALYNGVLSGMALDGKSFFYVNPLEVVPEACQKDQRKKHVKPIRQKWFACACCPPNLARLFASIGGYLHFIRAETLYTNLYVTSTSEFTFQGLPIKLHMDSAYPFDEKIHISLSLPRPMEFSYAVRIPAWCADYHVLINGKICAGTLKDGFLYLHRCWRDGDEVELTLSMPVRVVRANSLVRENIGKSAICRGPIVYCMEQTDNGPQLHRNRICGKPSFTISSGEENLKGLPCISCSGEYLLPDGTQLYTSAKESFQPKTLRFIPYFAWCNRSPGEMAVWVRHDTILEHHHHHH | soluble
MSLNRDKPLKVMLVAAEASGDALGAGLAKALRARLGQGVTFVGIGGAKMAEQGVQSPFDIAQLSILGILESLKAYPRAMARLKDTVALAAREKPDVAVLIDSWGFNIRLAHALRRLDPTLPLVKYVAPQVWAYREGRAQALAKAVDLLLSIQPMDKAYFDAAGLQNVFVGNSALAKRFDHADPGRLRAAIGAAASQQILLVLPGSRPSEIERVMPAFEDAVRRLKVERPDLHIVVPAAYTVAEAVKARVAGWPFRAHVIEDEGLKDDAFLAGDVALACSGTVTTELALAGRPMVVGYKTGAVTYAIVKRLMKPRWITLFNIAAGKAVAPELIQHACEGEGLAREVALRLDDPDLRQRQTAEQYAALDRMGRGMPDPSEAAAEALLDFLSARGALGREGHHHHHH | not soluble
MGSDKIHHHHHHMQLPGGVQLTYCTNLHAASSLDEVRANLDRYAVPLKARLSPNAPFGIGLRLSGQESAELLEGQALAAFKAFLDERGLYVFTLNGFPYGPFHGQPVKTQVHAPDWRDAERVAYTQRLAEILAFLLPEGGEGGISTSPLSYRGWVEADSRSAWIQMTGNLVRVVETLIRLRQRWGRFIHLDLEPEPDGLLQCSDDLARFFREHLLGGGARDLAARLGIDVEQARAYLRDHVQVCFDTCHVAVMYEDPAQALQTYEQVGLRIGKVQISSALRLPLPPDPEARLDGARALVPFVEDTYLHQVIGRSRDGKIVQYPDLPPALAHVRDPQVTEWRIHFHIPVFLERAGLFASTQPEIVKTLALLREKGFTRHLEIETYTWDVLPEALKLPLLCSIEREYRWVMDVL | not soluble
SIPYQEWHSQLQSLYDSQIFHNWALCQDVHLNDEKDGLLLRLIPTRQLQKNTERIENKLLNHIELYLTYSKVYNEPLLLLRIWEEKSIDGIPMTKLMLPTDIESLLDVQGKFQLGLDTIINLEGSVWYSFHPCDTSCIVGDQAEFMSTYLRRWVSIFIFSWLGYEDS | soluble
MRTVALGIVAMACLVAIAHGGNFFQDAEVSWGQGRGKIVDGGRGLDLTLDRSSGSGFQSKSEYLFGKIDMQIKLVPGGWWNQELSDMSYRRMRWVQRKFMIYNYCTDAKRFPQGTPAECKLR | not soluble

From the DeepSol protein solubility set
